Laboratory results reported in patent US20220010017A1 (Bayer, published 2022).

Target: T1, human CEACAM6 (human, UniProt P40199 35-320)
T1 sequence (looked up): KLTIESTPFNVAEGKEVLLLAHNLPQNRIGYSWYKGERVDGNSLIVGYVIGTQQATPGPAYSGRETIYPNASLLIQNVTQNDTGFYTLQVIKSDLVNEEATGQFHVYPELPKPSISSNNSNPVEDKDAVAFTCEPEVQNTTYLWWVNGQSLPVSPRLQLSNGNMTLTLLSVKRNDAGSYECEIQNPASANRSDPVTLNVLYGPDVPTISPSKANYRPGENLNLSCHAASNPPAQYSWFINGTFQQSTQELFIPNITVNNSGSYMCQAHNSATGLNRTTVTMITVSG
Assay: cell-based or functional assay

B1: TPP-3310 (antibody, human IgG2, kappa, V domains shown)
VH: QVTLRESGPALVKPTQTLTLTCTFSGFSLSTYGIGVGWIRQPPGKALEWLAHIWWNDNKYYSTSLKTRLTISKDTSKNQVVLTMTNMDPVDTATYYCARISLPYFDYWGQGTTLTVSS
VL: DIQLTQSPSFLSASVGDRVTITCKASQNVGTAVAWYQQKPGKAPKLLIYSASNRYTGVPSRFSGSGSGTEFTLTISSLQPEDFATYYCQQYSSYPLTFGGGTKVEIKR
- half-maximal effective concentration (EC50) on the activation of T cells in co-culture: ~1 µg/mL
